Source: patent publication US20030092609A1
[ ]: non-standard residue; d: D form. Hyp = O=C(O)[C@@H]1C[C@@H](O)CN1

B1: H-Gly-Pro-Hyp-Gly-Ala-Gly-OH (AAP, antiarrhythmic peptide) (peptide)
chain: H-GP[Hyp]GAG-OH
SMILES: C[C@H](NC(=O)CNC(=O)[C@@H]1C[C@@H](O)CN1C(=O)[C@@H]1CCCN1C(=O)CN)C(=O)NCC(=O)O
B2: H-Gly-Ala-Gly-Hyp-Pro-Tyr-NH2 (AAP10) (peptide)
chain: H-GAG[Hyp]PY-NH2
B3: ASAL(mono-iodo)-Pro-Hyp-Gly-Ala-Gly-NH2 (Compound 32) (peptide)
chain: {ASAL(3-I)}-P[Hyp]GAG-NH2

Legend:
[1] = target: AAP receptors in CHO cells; assay: in situ displacement of [125I]AAP10 on intact CHO cells
[2] = target: AAP receptors in CHO cells; assay: cell-based or functional assay
[3] = target: [125I]AAP10 binding site in murine heart tissue preparations; assay: displacement of 0.8 nM [125I]AAP10 from murine heart filtrate
[4] = target: [125I]AAP10 binding site in murine heart tissue preparations; assay: displacement of 0.8 nM [125I]AAP10 from murine heart membranes

Molecule	IC50 [1] [nM]	Inhibition of forskoline stimulated cAMP formation in CHO cells, EC50 [2] [nM]	IC50 [3] [nM]	IC50 [4] [nM]
Ac-D-Tyr(3,5-di-I)-D-Pro-D-Hyp-Gly-D-Ala-Gly-NH2 (Compound 24) (peptide)	65	–	–	–
Ac-D-Tyr-D-Pro-D-4Hyp-Gly-D-Ala-Gly-NH2 (Compound 2) (peptide)	0.5	6.2	3.6	1.2
B1	0.8	53	1.2	–
B2	130	11	1.2	–
B3	0.5	–	–	–
